Measured values taken from paper PMC9463662, “Selection of DNA aptamer and its application as an electrical biosensor for Zika virus detection in human serum”.

Key:
[1] = biological target: T1, Zika virus envelope protein (Zika virus, UniProt A0A221S5X1 1-403); experiment: bead-based fluorescence binding assay; protein on streptavidin beads; conditions: protein: commercial
[2] = biological target: T1, Zika virus envelope protein; experiment: capacitance biosensor; aptamer/MXene on Au micro-gap electrode; DIW or 10% human serum; LOD 38.14 pM in serum; conditions: protein: commercial
[3] = biological target: albumin (bovine serum albumin in sensor test) (UniProt P02769 25-607); experiment: capacitance biosensor; bovine serum albumin
albumin (bovine serum albumin in sensor test), sequence (P02769 25-607): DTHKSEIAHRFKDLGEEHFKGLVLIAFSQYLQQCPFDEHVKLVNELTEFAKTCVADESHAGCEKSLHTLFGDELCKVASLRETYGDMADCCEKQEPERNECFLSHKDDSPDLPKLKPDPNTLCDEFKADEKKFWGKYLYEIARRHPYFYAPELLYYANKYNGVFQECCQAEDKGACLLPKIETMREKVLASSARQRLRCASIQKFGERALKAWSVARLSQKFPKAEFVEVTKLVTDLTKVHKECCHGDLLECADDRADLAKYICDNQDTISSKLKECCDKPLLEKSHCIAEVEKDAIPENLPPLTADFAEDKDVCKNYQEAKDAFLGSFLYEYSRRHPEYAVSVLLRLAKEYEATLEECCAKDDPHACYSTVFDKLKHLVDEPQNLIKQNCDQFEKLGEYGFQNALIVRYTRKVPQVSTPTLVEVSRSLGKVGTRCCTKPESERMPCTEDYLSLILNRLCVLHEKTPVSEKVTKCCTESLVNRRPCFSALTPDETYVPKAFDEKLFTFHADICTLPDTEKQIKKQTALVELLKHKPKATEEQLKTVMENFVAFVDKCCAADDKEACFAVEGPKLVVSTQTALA

B1: Zika-25 aptamer, 5'-FAM (ssDNA)
DNA: TGACACCGTACCTGCTCTAAGCACGCCAAGGGACTATAGGTTGACACCGTACCTGCTCTAAGCACGCCAAGGGACTAT
- Kd [1]: 226 ± 9.6 nM

B2: Zika-07 (Zika-7) aptamer, 5'-FAM (ssDNA)
DNA: TGACACCGTACCTGCTCTAGTGCGCACTGAACGATCCTGCGTCAAGTTCAAGGTTGTGAAGCACGCCAAGGGACTAT
- Kd [1]: 107 ± 1.9 nM

B3: thiol-modified Zika-07 aptamer (ssDNA)
DNA: TGACACCGTACCTGCTCTAGTGCGCACTGAACGATCCTGCGTCAAGTTCAAGGTTGTGAAGCACGCCAAGGGACTAT
modifications: 5'-SH
- binding result [2]: binds
- binding result [3]: no binding
